Laboratory results from patent US7998940B2, “Aptamers to von Willebrand factor and their use as thrombotic disease therapeutics” (Archemix Corp., priority 2004, dated 2011).
Numbering of substitutions follows the chain as printed. Read-outs that look alike come from different tables or passages of the source. Oligonucleotides are written 5' to 3', each unit as a sugar letter and its base; * is a phosphorothioate linkage, no mark a phosphodiester; rarer units and linkages stand in square brackets, end groups in braces. Plain capitals give the bases only. [invdT] = inverted (3'-3') thymidine; d = 2'-deoxy (DNA); m = 2'-O-methyl; r = 2'-OH (RNA); f = 2'-fluoro

Columns and labels:
[1] = tested on: botrocetin induced platelet aggregation; test: Inhibition of botrocetin induced platelet aggregation (BIPA) in human PRP; format: cell-based; settings: for IC90: human platelet rich plasma; for ≦200 nM aptamer gives >90% blocking in BIPA at 6 minutes: botrocetin induced platelet aggregation
Outline: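 Fresh human platelet-rich plasma, prewarmed at 37 degrees C, was preincubated one minute with aptamer (zero, 1 nM to 1000 nM) before botrocetin at a per-donor titrated aggregating concentration. Aggregation was followed as light transmittance; the value is the concentration blocking aggregation by 90% or greater after 6 minutes.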

[2] = tested on: full length human vWF (SEQ ID NO 7); test: dot blot KD determination and extent of binding, full length human vWF; settings: for % binding @ 100 nM vWF: extent of aptamer binding at 100 nM full length human vWF; for binding to human vWF: in words;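 on all read-outs here: dot blot binding of aptamers to full length human vWF across a protein titration, incubated 30 minutes at room temperature in 1x DPBS with BSA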
[3] = target: T1, human vWF A1 domain (SEQ ID NO 5) (Homo sapiens, UniProt P04275, T1381A); test: 3-point dot blot screen, human vWF A1 domain; format: binding; settings: 100 nM human vWF A1 domain
T1 sequence (P04275 with tags, fused parts or gaps T1381A): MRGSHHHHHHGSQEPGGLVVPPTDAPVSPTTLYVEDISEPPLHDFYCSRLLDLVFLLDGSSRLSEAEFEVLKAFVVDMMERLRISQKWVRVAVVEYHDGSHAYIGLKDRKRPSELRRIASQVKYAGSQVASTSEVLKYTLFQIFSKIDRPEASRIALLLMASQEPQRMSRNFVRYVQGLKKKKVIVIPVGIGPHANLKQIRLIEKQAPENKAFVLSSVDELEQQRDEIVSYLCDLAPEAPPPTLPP
Outline: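 Values are ratios of aptamer fraction retained on nitrocellulose with 100 nM vWF A1 domain (human or rabbit) versus a no-protein control. Unique clones from rounds 9 and 12 pools were transcribed, desalted and 5'-32P labeled before this three-point dot blot screen.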

[4] = tested on: rabbit vWF A1 domain (SEQ ID NO 6); test: 3-point dot blot screen, rabbit vWF A1 domain; format: binding; settings: for Screen- Rabbit/No Protein: 100 nM rabbit vWF A1 domain, ratio of fraction bound with target to without; for Screen Rabbit/No Protein: 3-point dot blot screen, 20 nM rabbit vWF A1 domain, ratio of fraction of aptamer bound with target protein to fraction bound without protein
rabbit vWF A1 domain (SEQ ID NO 6), sequence (as listed by the source): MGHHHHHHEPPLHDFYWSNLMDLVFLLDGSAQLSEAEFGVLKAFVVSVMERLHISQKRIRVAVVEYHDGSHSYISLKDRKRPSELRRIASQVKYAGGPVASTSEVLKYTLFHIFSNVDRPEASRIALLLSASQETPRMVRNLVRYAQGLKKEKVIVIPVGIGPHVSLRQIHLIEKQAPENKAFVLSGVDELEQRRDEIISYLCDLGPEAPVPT
Outline: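 Rabbit vWF A1 domain binding was screened by dot blot using three conditions: no target protein, human vWF, and rabbit vWF A1 domain at 100 nM (20 nM in the screen run twice). Radiolabeled aptamer bound to nitrocellulose was quantified, and results are expressed as the ratio of bound fraction with protein to bound fraction without protein.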

[5] = target: T1, human vWF A1 domain (SEQ ID NO 5); test: dot blot KD determination, human vWF A1 domain
[6] = Phase 3 modification, full length human vWF, dot blot, 8 point protein titration, read-out: KD
[7] = Phase 4 and 5 modification, full length human vWF, read-out: KD
[8] = rRdY aptamers, ratio of fraction bound with target to without
[9] = read-out: Human A1 KD, rRdY aptamers, 6 point protein titration

## PEG20K-NH2-mGmCmGmUdGdCdAmGmUmGmCmCmUmUmCmGmGmCdCmG-s-TmGdCdGdGTmGmCdCmUdCdCmGmUdCmAmCmGmC-3T [ARC1779]
[1]
  IC90: ~100 nM

## dGdGdCdGTdGdCdAdGTdGdCdCTTdCdGdGdCdCdGTdGdCdGdGTdGdCdCTdCdCdGTdCdAdCdGdCdC-3T (DNA GGCGTGCAGTGCCTTCGGCCGTGCGGTGCCTCCGTCACGCC; DNA, [invdT] at 3' end, backbone and methylation of C not given here) [ARC1172, ARC1115 with 3'-inverted dT]
[1]
  IC90: ~200 nM
[2]; Phase 1 modification
  % binding @ 100 nM vWF: 37%
[2]; Phase 1 modification, full length human vWF, dot blot, 8 point protein titration, read-out: KD
  Kd: 2 nM
[2]; Phase 3 modification
  % binding @ 100 nM vWF: 37%
[2]; [6]
  Kd: 2 nM
[2]; Phase 4 and 5 modification
  % binding @ 100 nM vWF: 37%
[2]; [7]
  Kd: 2 nM
[2]; dot blot
  binding to human vWF: shown to bind

## mGmCmGmUdGdCdAmGmUmGmCmCmUmUmCmGmGmCdCmG-s-TmGdCdGdGTmGmCdCmUdCdCmGmUdCmAmCmGmC-3T (GCGUGCAGUGCCUUCGGCCGTGCGGTGCCUCCGUCACGC; sugars from the 5' end mmmmdddmmmmmmmmmmmdmdmddddmmdmddmmdmmmm, [invdT] at 3' end, backbone not given here) [ARC1368]
[1]
  IC90: ~200 nM
[1]; in words, human PRP
  inhibition of botrocetin induced platelet aggregation: potency comparable to ReoPrO™
[2]; Phase 3 modification
  % binding @ 100 nM vWF: 38.2%
[2]; [6]
  Kd: 1.8 nM
[2]; Phase 4 and 5 modification
  % binding @ 100 nM vWF: 38.2%
[2]; [7]
  Kd: 1.8 nM
[2]; dot blot
  binding to human vWF: affinity identical (within experimental error) to that of the parent compound

B1: AMX206.D8: rRdY aptamer clone (nucleic acid)
chain: rGrGrArGdCrGdCrAdCdTdCrArGdCdCrAdCrGrAdCrGrGdTrGrAdTrGrGrAdTdTrArGdCrGdCrGrGdTrGrGrAdTdCdTdTrArAdCrGdTrGdCrGrArGdTdTdTdCrGrAdCdCdTdCdTdCdTrGdCdTrArGdC
[3]; [8]
  Screen- Human/No Protein: 2.80
[4]; rRdY aptamers
  Screen- Rabbit/No Protein: 3.76
[5]; [9]
  Kd: 370 nM

B2: AMX205.F7: rRdY aptamer clone (nucleic acid)
chain: rGrGrArGdCrGdCrAdCdTdCrArGdCdCrAdCrAdCrGrAdCrAdTdTrGrGdCrGrGrGdTdTrGdTrArAdTdTrAdCdCrAdCrGdCrAdTrGrGdCdTrGdTdTdTrGdTdTdTdCrGrAdCdCdTdCdTdCdTrGdCdTrArGdC
[3]; [8]
  Screen- Human/No Protein: 3.13
[1]
  ≦200 nM aptamer gives >90% blocking in BIPA at 6 minutes: yes
[4]; rRdY aptamers
  Screen- Rabbit/No Protein: 2.37
[5]; [9]
  Kd: 1.5 nM

B3: AMX203.G9: rRdY aptamer clone (nucleic acid)
chain: rGrGrArGdCrGdCrAdCdTdCrArGdCdCrAdCrGrGrGrGdTrGrGrGdTrArGrAdCrGrGdCrGrGrGdTrAdTrGdTrGrGdCdTrGrGdTrGdTdCrGrArArGrGrGdTdTdTdCrGrAdCdCdTdCdTdCdTrGdCdTrArGdC
[3]; [8]
  Screen- Human/No Protein: 1.65
[1]
  ≦200 nM aptamer gives >90% blocking in BIPA at 6 minutes: yes
[4]; rRdY aptamers
  Screen- Rabbit/No Protein: 1.35
[5]; [9]
  Kd: 1.3 nM

B4: AMX201.C8: rRfY aptamer clone (nucleic acid)
chain: rGrGrArGfCrGfCrAfCfUfCrArGfCfCrAfCfCfCfUfCrGfCrArArGfCrAfUfUfUfUrArArGrArAfUrGrAfCfUfUrGfUrGfCfCrGfCfUrGrGfCfUrGfUfUfUfUfCrGrAfCfCfUfCfUfCfUrGfCfUrArGfC
[3]; rRfY aptamers, ratio of fraction bound with target to fraction bound without target
  Screen- Human/No Protein: 2.47
[1]
  ≦200 nM aptamer gives >90% blocking in BIPA at 6 minutes: yes
[4]; rRfY aptamers
  Screen- Rabbit/No Protein: 1.50
[5]; read-out: human A1 KD, rRfY aptamers, 8 point titration of human vWF A1 domain
  Kd: 0.2 nM

B5: AMX237.G6: DNA SELEX 2 aptamer clone (nucleic acid)
DNA: CTACCTACGATCTGACTAGCGTGCAGTGCCTATTCCAGGCCGTGCGGTGCCTCCGTCACGCTTACTCTCATGTAGTTCC
modifications: DNA, backbone and methylation of C not given here
notes: DNA SELEX 2 aptamer clone
[1]
  ≦200 nM aptamer gives >90% blocking in BIPA at 6 minutes: yes
[2]; dot blot, 12 point protein titration, 1xDPBS plus 0.1 mg/mL BSA, room temperature, 30 minutes, read-out: full length human vWF KD
  Kd: 0.2 nM
[4]
  Screen Rabbit/No Protein: 3.63

B6: AMX237.A2: DNA SELEX 2 aptamer clone (nucleic acid)
chain: CTACCTACGATCTGACTAGCTCCAGTGTTTCATCCAATAACCGTGCGGTGCCTCCGTGAGCTTACTCTCATGTAGTTCC
modifications: DNA, backbone and methylation of C not given here
notes: DNA SELEX 2 aptamer clone
[4]
  Screen Rabbit/No Protein: 2.34

B7: AMX237.B11: DNA SELEX 2 aptamer clone (nucleic acid)
DNA: B6 chain with C31T, C35T
modifications: DNA, backbone and methylation of C not given here
notes: DNA SELEX 2 aptamer clone
[4]
  Screen Rabbit/No Protein: 2.57

B8: AMX238.G5: DNA SELEX 2 aptamer clone (nucleic acid)
DNA: B6 chain with C31T, C34T
modifications: DNA, backbone and methylation of C not given here
notes: DNA SELEX 2 aptamer clone
[4]
  Screen Rabbit/No Protein: 2.68

B9: AMX238.D12: DNA SELEX 2 aptamer clone (nucleic acid)
DNA: B6 chain with C34T
modifications: DNA, backbone and methylation of C not given here
notes: DNA SELEX 2 aptamer clone
[4]
  Screen Rabbit/No Protein: 2.19

B10: AMX237.A11: DNA SELEX 2 aptamer clone (nucleic acid)
chain: B6 chain with C31T
modifications: DNA, backbone and methylation of C not given here
notes: DNA SELEX 2 aptamer clone
[4]
  Screen Rabbit/No Protein: 2.38

B11: AMX205.H10: rRdY aptamer clone (nucleic acid)
chain: rGrGrArGdCrGdCrAdCdTdCrArGdCdCrAdCdTrGdTdTrGdCdCrGrAdCrGrGdTrGrAdTrGdTrAdTdTrArAdCrGdCrGrGrGdCrArAdCrGdTdTrGrGdTrGdTdTdTdCrGrAdCdCdTdCdTdCdTrGdCdTrArGdC
[3]; [8]
  Screen- Human/No Protein: 1.88
[4]; rRdY aptamers
  Screen- Rabbit/No Protein: 2.47
[5]; [9]
  Kd: 397 nM
